The values below are quoted from earlier work in publication PMC3901153.

A word on the Kd: it is the equilibrium constant for the complex coming apart.

In one data set the target is TLR4 (Homo sapiens) (UniProt O00206).
For a further data set, the target named is RAGE (Homo sapiens) (UniProt Q15109).
Sequence of UniProt Q15109 (Q15109 23-404): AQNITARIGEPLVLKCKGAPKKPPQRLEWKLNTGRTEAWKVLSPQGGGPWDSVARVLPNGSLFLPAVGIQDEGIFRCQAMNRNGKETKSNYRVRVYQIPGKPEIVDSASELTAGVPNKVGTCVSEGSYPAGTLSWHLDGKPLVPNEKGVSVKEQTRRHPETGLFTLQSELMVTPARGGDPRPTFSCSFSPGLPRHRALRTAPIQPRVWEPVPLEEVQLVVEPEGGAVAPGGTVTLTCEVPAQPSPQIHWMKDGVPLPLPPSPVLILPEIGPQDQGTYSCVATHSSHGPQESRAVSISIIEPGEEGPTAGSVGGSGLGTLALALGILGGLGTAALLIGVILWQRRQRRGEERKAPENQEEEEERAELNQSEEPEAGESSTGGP

Sequence of UniProt O00206 (O00206 24-839): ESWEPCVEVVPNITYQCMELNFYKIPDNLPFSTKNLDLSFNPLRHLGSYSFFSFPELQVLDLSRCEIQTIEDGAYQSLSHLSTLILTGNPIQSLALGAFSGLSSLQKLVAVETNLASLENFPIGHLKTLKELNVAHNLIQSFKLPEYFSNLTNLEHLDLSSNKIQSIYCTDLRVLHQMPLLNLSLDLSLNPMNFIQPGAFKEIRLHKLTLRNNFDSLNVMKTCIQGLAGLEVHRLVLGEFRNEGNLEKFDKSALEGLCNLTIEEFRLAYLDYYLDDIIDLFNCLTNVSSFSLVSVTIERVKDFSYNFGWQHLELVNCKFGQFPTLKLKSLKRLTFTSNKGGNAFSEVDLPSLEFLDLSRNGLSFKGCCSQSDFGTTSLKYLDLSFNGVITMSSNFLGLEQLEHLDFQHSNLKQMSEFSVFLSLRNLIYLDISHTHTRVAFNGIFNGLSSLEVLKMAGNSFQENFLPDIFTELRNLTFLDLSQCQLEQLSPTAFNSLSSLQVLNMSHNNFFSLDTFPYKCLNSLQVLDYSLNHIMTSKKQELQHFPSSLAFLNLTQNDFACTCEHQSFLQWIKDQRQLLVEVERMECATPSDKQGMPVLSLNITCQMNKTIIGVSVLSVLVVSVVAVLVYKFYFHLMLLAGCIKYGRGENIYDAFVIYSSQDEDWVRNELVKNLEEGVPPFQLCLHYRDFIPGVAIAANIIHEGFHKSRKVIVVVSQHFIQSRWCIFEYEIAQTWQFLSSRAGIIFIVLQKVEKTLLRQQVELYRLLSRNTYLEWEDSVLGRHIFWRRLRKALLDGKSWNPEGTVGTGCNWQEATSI

As for HMGB1 (from UniProt P09429), the results for the Kd with TLR4 (Homo sapiens) and in the data set with RAGE (Homo sapiens) were 1500 nM and 10 nM, respectively.
